Measured values published in US20250297021A1.
Several values for one entry are separate records, joined by “and”; a condition that tells them apart may be missing. Identical values can stand only once.

Assays:
[1] = molecular target: human BCMA-His protein (human) (UniProt Q02223); assay: competition ELISA vs hAPRIL-biotin on coated human BCMA; antibody 0.14 nM
[2] = molecular target: human BCMA-His protein (human) (UniProt Q02223); assay: competition ELISA vs hAPRIL-biotin on coated human BCMA; antibody 0.41 nM
[3] = molecular target: human BCMA-His protein (human) (UniProt Q02223); assay: competition ELISA vs hAPRIL-biotin on coated human BCMA; antibody 1.23 nM
[4] = molecular target: human BCMA-His protein (human) (UniProt Q02223); assay: competition ELISA vs hAPRIL-biotin on coated human BCMA; antibody 3.70 nM
[5] = molecular target: human BCMA-His protein (human) (UniProt Q02223); assay: competition ELISA vs hAPRIL-biotin on coated human BCMA; antibody 11.11 nM
[6] = molecular target: human BCMA-His protein (human) (UniProt Q02223); assay: competition ELISA vs hAPRIL-biotin on coated human BCMA; antibody 33.33 nM
[7] = molecular target: human BCMA-His protein (human) (UniProt Q02223); assay: competition ELISA vs hAPRIL-biotin on coated human BCMA; antibody 100.00 nM
[8] = molecular target: human BCMA on cells (human) (UniProt Q02223); assay: FACS, H929 cells
human BCMA on cells (human), sequence (Q02223 whole entry): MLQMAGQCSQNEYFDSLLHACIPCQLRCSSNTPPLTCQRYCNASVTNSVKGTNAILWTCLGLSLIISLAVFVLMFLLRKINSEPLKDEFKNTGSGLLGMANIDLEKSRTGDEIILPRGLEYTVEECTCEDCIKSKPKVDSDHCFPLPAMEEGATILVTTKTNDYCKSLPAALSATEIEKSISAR

[9] = molecular target: human BCMA on cells (human) (UniProt Q02223); assay: FACS, U266 cells
[10] = molecular target: human BCMA on cells (human) (UniProt Q02223); assay: FACS, H929 cells; remark: listed apart in the source
[11] = molecular target: human BCMA on cells (human) (UniProt Q02223); assay: FACS, U266 cells; remark: listed apart in the source
[12] = molecular target: human BCMA on cells (human) (UniProt Q02223); assay: FACS, RPMI8226 cells
[13] = molecular target: human BCMA on cells (human) (UniProt Q02223); assay: FACS, RPMI8226 cells; remark: listed apart in the source
[14] = molecular target: human BCMA on cells (human) (UniProt Q02223); assay: FACS, Flp-in CHO-human BCMA cells
[15] = molecular target: monkey BCMA on cells (monkey); assay: FACS, Flp-in CHO-monkey BCMA cells
[16] = molecular target: human BCMA-His protein (human) (UniProt Q02223); assay: ELISA, human BCMA-His coated; Ab 1 nM
[17] = molecular target: human BCMA-His protein (human) (UniProt Q02223); assay: ELISA, human BCMA-His coated; Ab 10 nM
[18] = molecular target: monkey BCMA-His protein (monkey); assay: ELISA, monkey BCMA-His coated; Ab 1 nM
monkey BCMA-His protein (monkey), sequence (A0A2K5 entry or part of it limits assumed): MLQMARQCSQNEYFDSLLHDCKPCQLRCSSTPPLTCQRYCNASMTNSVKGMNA

[19] = molecular target: human BCMA-His protein (human) (UniProt Q02223); assay: ELISA, human BCMA-His coated; Ab 10 nM; remark: listed apart in the source
[20] = molecular target: monkey BCMA-His protein (monkey); assay: ELISA, monkey BCMA-His coated; Ab 1 nM; remark: listed apart in the source
[21] = molecular target: human BCMA-His protein (human) (UniProt Q02223); assay: ELISA, human BCMA-His coated; Ab 0.1 nM
[22] = molecular target: human BCMA-His protein (human) (UniProt Q02223); assay: ELISA, human BCMA-His coated; Ab 100 nM
[23] = molecular target: monkey BCMA-His protein (monkey); assay: ELISA, monkey BCMA-His coated; Ab 10 nM
[24] = molecular target: monkey BCMA-His protein (monkey); assay: ELISA, monkey BCMA-His coated; Ab 10 nM; remark: listed apart in the source
[25] = molecular target: human BCMA-His protein (human) (UniProt Q02223); assay: ELISA, human BCMA-His coated; Ab 0.01 nM
[26] = molecular target: monkey BCMA-His protein (monkey); assay: ELISA, monkey BCMA-His coated; Ab 0.1 nM
[27] = molecular target: monkey BCMA-His protein (monkey); assay: ELISA, monkey BCMA-His coated; Ab 100 nM
[28] = molecular target: monkey BCMA-His protein (monkey); assay: ELISA, monkey BCMA-His coated; Ab 0.1 nM; remark: listed apart in the source
[29] = molecular target: monkey BCMA-His protein (monkey); assay: ELISA, monkey BCMA-His coated; Ab 100 nM; remark: listed apart in the source
[30] = molecular target: human BCMA-His protein (human) (UniProt Q02223); assay: ELISA, human BCMA-His coated; Ab 0.001 nM
[31] = molecular target: monkey BCMA-His protein (monkey); assay: ELISA, monkey BCMA-His coated; Ab 0.01 nM
[32] = molecular target: human BCMA-His protein (human) (UniProt Q02223); assay: ELISA, human BCMA-His coated; Ab 0.0001 nM
[33] = molecular target: monkey BCMA-His protein (monkey); assay: ELISA, monkey BCMA-His coated; Ab 0.001 nM
[34] = molecular target: human BCMA-His protein (human) (UniProt Q02223); assay: ELISA, human BCMA-His coated; Ab 0.0001 nM; remark: listed apart in the source
[35] = molecular target: monkey BCMA-His protein (monkey); assay: ELISA, monkey BCMA-His coated; Ab 0.001 nM; remark: listed apart in the source
[36] = molecular target: monkey BCMA-His protein (monkey); assay: ELISA, monkey BCMA-His coated; Ab 0.0001 nM
[37] = molecular target: monkey BCMA-His protein (monkey); assay: ELISA, monkey BCMA-His coated; Ab 0.0001 nM; remark: listed apart in the source
[38] = molecular target: human BCMA on cells (human) (UniProt Q02223); assay: cell ELISA, Flp-inCHO-human BCMA cells; Ab 0.01 nM
[39] = molecular target: human BCMA on cells (human) (UniProt Q02223); assay: cell ELISA, Flp-inCHO-human BCMA cells; Ab 0.02 nM
[40] = molecular target: human BCMA on cells (human) (UniProt Q02223); assay: cell ELISA, Flp-inCHO-human BCMA cells; Ab 0.05 nM
[41] = molecular target: human BCMA on cells (human) (UniProt Q02223); assay: cell ELISA, Flp-inCHO-human BCMA cells; Ab 0.14 nM
[42] = molecular target: human BCMA on cells (human) (UniProt Q02223); assay: cell ELISA, Flp-inCHO-human BCMA cells; Ab 0.41 nM
[43] = molecular target: human BCMA on cells (human) (UniProt Q02223); assay: cell ELISA, Flp-inCHO-human BCMA cells; Ab 1.23 nM
[44] = molecular target: human BCMA on cells (human) (UniProt Q02223); assay: cell ELISA, Flp-inCHO-human BCMA cells; Ab 3.70 nM
[45] = molecular target: human BCMA on cells (human) (UniProt Q02223); assay: cell ELISA, Flp-inCHO-human BCMA cells; Ab 0.002 nM
[46] = molecular target: human BCMA on cells (human) (UniProt Q02223); assay: cell ELISA, Flp-inCHO-human BCMA cells; Ab 11.11 nM
[47] = molecular target: human BCMA on cells (human) (UniProt Q02223); assay: cell ELISA, Flp-inCHO-human BCMA cells; Ab 33.33 nM
[48] = molecular target: human BCMA on cells (human) (UniProt Q02223); assay: cell ELISA, Flp-inCHO-human BCMA cells; Ab 100.00 nM

human BCMA-His protein (human), sequence (Q02223 1-54 limits assumed): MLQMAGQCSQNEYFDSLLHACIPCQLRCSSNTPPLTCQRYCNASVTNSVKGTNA

Question: anti-hel-hIgG1 (antibody) was tested. Which OD450 [1] did it give?
Answer: 1.43 OD450 and 1.28 OD450 and 1.63 OD450

Question: What about the OD450 [2] of the same substance?
Answer: 1.41 OD450 and 1.31 OD450 and 1.48 OD450

Question: What about the OD450 [3] of the same substance?
Answer: 1.43 OD450 and 1.27 OD450 and 1.53 OD450

Question: What about the OD450 [4] of the same substance?
Answer: 1.38 OD450 and 1.29 OD450 and 1.53 OD450

Question: And the OD450 [5]?
Answer: 1.39 OD450 and 1.24 OD450 and 1.51 OD450

Question: And the OD450 [6]?
Answer: 1.41 OD450 and 1.31 OD450 and 1.46 OD450

Question: And the OD450 [7]?
Answer: 1.54 OD450 and 1.45 OD450 and 1.57 OD450

Question: For “anti-hel-hIgG1 (negative control antibody against hen egg lysozyme)”, which Maximum mean fluorescence intensity [8] is on record?
Answer: 110

Question: What about the Maximum mean fluorescence intensity [9] of the same substance?
Answer: 103

Question: And the Maximum mean fluorescence intensity [10]?
Answer: 94 and 69

Question: And the Maximum mean fluorescence intensity [11]?
Answer: 86 and 101

Question: What about the Maximum mean fluorescence intensity [12] of the same substance?
Answer: 118

Question: What about the Maximum mean fluorescence intensity [13] of the same substance?
Answer: 81 and 107

Question: And the Cell mean fluorescence density [14]?
Answer: 54.6

Question: And the Cell mean fluorescence density [15]?
Answer: 49

Question: And the OD450 [16]?
Answer: 0.05

Question: And the OD450 [17]?
Answer: 0.07

Question: What about the OD450 [18] of the same substance?
Answer: 0.05

Question: And the OD450 [19]?
Answer: 0.27 and 0.12

Question: What about the OD450 [20] of the same substance?
Answer: 0.06 and 0.17

Question: And the OD450 [21]?
Answer: 0.05

Question: And the OD450 [22]?
Answer: 0.12

Question: And the OD450 [23]?
Answer: 0.06

Question: And the OD450 [24]?
Answer: 0.08

Question: What about the OD450 [25] of the same substance?
Answer: 0.05

Question: And the OD450 [26]?
Answer: 0.05

Question: What about the OD450 [27] of the same substance?
Answer: 0.1

Question: What about the OD450 [28] of the same substance?
Answer: 0.08 and 0.19

Question: And the OD450 [29]?
Answer: 0.08 and 0.18

Question: And the OD450 [30]?
Answer: 0.05

Question: And the OD450 [31]?
Answer: 0.04

Question: And the OD450 [32]?
Answer: 0.05

Question: And the OD450 [33]?
Answer: 0.05

Question: What about the OD450 [34] of the same substance?
Answer: 0.06 and 0.09

Question: What about the OD450 [35] of the same substance?
Answer: 0.06 and 0.17

Question: And the OD450 [36]?
Answer: 0.05

Question: And the OD450 [37]?
Answer: 0.06 and 0.08

Question: And the OD450 [38]?
Answer: 0.08 and 0.09

Question: What about the OD450 [39] of the same substance?
Answer: 0.08 and 0.1

Question: And the OD450 [40]?
Answer: 0.08 and 0.09

Question: And the OD450 [41]?
Answer: 0.08 and 0.09

Question: What about the OD450 [42] of the same substance?
Answer: 0.08 and 0.09

Question: What about the OD450 [43] of the same substance?
Answer: 0.08 and 0.09

Question: And the OD450 [44]?
Answer: 0.08 and 0.09

Question: And the OD450 [45]?
Answer: 0.08 and 0.09

Question: What about the OD450 [46] of the same substance?
Answer: 0.08 and 0.1

Question: What about the OD450 [47] of the same substance?
Answer: 0.09 and 0.14

Question: And the OD450 [48]?
Answer: 0.11 and 0.28
